Earlier results in article PMC4245495.
pKd: −log10 of the molar value.

Target: Uroplakin Ia (UniProt O00322)
Chain of UniProt O00322 (O00322 whole entry): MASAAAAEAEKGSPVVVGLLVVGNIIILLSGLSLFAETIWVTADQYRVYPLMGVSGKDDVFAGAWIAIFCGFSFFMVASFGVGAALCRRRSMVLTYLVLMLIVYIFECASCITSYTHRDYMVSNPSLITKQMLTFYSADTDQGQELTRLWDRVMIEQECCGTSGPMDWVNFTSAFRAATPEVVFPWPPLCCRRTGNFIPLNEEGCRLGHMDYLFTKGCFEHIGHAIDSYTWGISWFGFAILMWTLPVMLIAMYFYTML

## FimH (from UniProt P08191)
  pKd: 7.00
